Measurements from the RNAGym collection of RNA variant scans (doi:10.7554/elife.80360).

B1: Twister Ribozyme (parent)
chain: AACACUGCCAAUGCCGGUCCCAAGCCCGGAUAAAAGUGGAGGGGGCGG

Variants of: B1
Assay: self-cleavage, relative activity (ratio to wild type); higher = more cleavage; co-transcriptional

Variant | self-cleavage
AACACUGCCAAUGCCGGUCCCAAGCCCGGAUAAAAGUGGAGGAGGCCG [G43A G47C] | 0.208
AACACUGCCAAUGCCGGUCCCAAGCCCGGAUAAAAGUGGAGAGGGGGG [G42A C46G] | 0.232
AACACUGCCAAUGCCGGUCCCAAGCCCGGAUAAAAGUGGAGAGGGCGC [G42A G48C] | 0.624
AACACUGCCAAUGCCGGUCCCAAGCCCGGAUAAAAGUGGACGGCGCGG [G41C G44C] | 0.187
AACACUGCCAAUGCCGGUCCCAAGCCCGGAUAAAAGUGGACGGAGCGG [G41C G44A] | 0.211
AACACUGCCAAUGCCGGUCCCAAGCCCGGAUAAAAGUGGAGGGGCUGG [G45C C46U] | 0.544
AACACUGCCAAUGCCGGUCCCAAGCCCGGAUAAAAGUGGAGGCGACGG [G43C G45A] | 0.294
AACACUGCCAAUGCCGGUCCCAAGCCCGGAUAAAAGUGGAUGAGGCGG [G41U G43A] | 0.163
AACACUGCCAAUGCCGGUCCCAAGCCCGGAUAAAAGUGGAUGCGGCGG [G41U G43C] | 0.135
AACACUGCCAAUGCCGGUCCCAAGCCCGGAUAAAAGUGGUGGAGGCGG [A40U G43A] | 0.132
AACACUGCCAAUGCCGGUCCCAAGCCCGGAUAAAAGUGGUGGCGGCGG [A40U G43C] | 0.114
AACACUGCCAAUGCCGGUCCCAAGCCCGGAUAAAAGUGGAGGGUCCGG [G44U G45C] | 0.609
AACACUGCCAAUGCCGGUCCCAAGCCCGGAUAAAAGUGGAUUGGGCGG [G41U G42U] | 0.125
AACACUGCCAAUGCCGGUCCCAAGCCCGGAUAAAAGUGGAUCGGGCGG [G41U G42C] | 0.164
AACACUGCCAAUGCCGGUCCCAAGCCCGGAUAAAAGUGGAGGGCGUGG [G44C C46U] | 0.732
AACACUGCCAAUGCCGGUCCCAAGCCCGGAUAAAAGUGGAGAGGGCAG [G42A G47A] | 0.282
AACACUGCCAAUGCCGGUCCCAAGCCCGGAUAAAAGUGGAAGGGGCCG [G41A G47C] | 0.2
AACACUGCCAAUGCCGGUCCCAAGCCCGGAUAAAAGUGGAAGGGGCAG [G41A G47A] | 0.278
AACACUGCCAAUGCCGGUCCCAAGCCCGGAUAAAAGUGGUGGGGGAGG [A40U C46A] | 0.146
AACACUGCCAAUGCCGGUCCCAAGCCCGGAUAAAAGUGGAGUGGGCGC [G42U G48C] | 0.571
AACACUGCCAAUGCCGGUCCCAAGCCCGGAUAAAAGUGGAUGGGGCCG [G41U G47C] | 0.209
AACACUGCCAAUGCCGGUCCCAAGCCCGGAUAAAAGUGGAUGGGGCUG [G41U G47U] | 0.3
AACACUGCCAAUGCCGGUCCCAAGCCCGGAUAAAAGUGGGGGGUGCGG [A40G G44U] | 0.156
AACACUGCCAAUGCCGGUCCCAAGCCCGGAUAAAAGUGGGGGGCGCGG [A40G G44C] | 0.195
AACACUGCCAAUGCCGGUCCCAAGCCCGGAUAAAAGUGGAGGGCGCGA [G44C G48A] | 0.289
AACACUGCCAAUGCCGGUCCCAAGCCCGGAUAAAAGUGGAGGGUGCAG [G44U G47A] | 0.758
AACACUGCCAAUGCCGGUCCCAAGCCCGGAUAAAAGUGGAGGGUGCCG [G44U G47C] | 0.523

Variant | self-cleavage
AACACUGCCAAUGCCGGUCCCAAGCCCGGAUAAAAGUGGAGGCGGCCG [G43C G47C] | 0.159
AACACUGCCAAUGCCGGUCCCAAGCCCGGAUAAAAGUGGAGGCGGCAG [G43C G47A] | 0.138
AACACUGCCAAUGCCGGUCCCAAGCCCGGAUAAAAGUGGAGGCGGCUG [G43C G47U] | 0.13
AACACUGCCAAUGCCGGUCCCAAGCCCGGAUAAAAGUGGAGCGGGUGG [G42C C46U] | 0.463
AACACUGCCAAUGCCGGUCCCAAGCCCGGAUAAAAGUGGAGCGGGGGG [G42C C46G] | 0.465
AACACUGCCAAUGCCGGUCCCAAGCCCGGAUAAAAGUGGAUGGGCCGG [G41U G45C] | 0.177
AACACUGCCAAUGCCGGUCCCAAGCCCGGAUAAAAGUGGAUGGGACGG [G41U G45A] | 0.596
AACACUGCCAAUGCCGGUCCCAAGCCCGGAUAAAAGUGGAGAAGGCGG [G42A G43A] | 0.131
AACACUGCCAAUGCCGGUCCCAAGCCCGGAUAAAAGUGGAGAUGGCGG [G42A G43U] | 0.134
AACACUGCCAAUGCCGGUCCCAAGCCCGGAUAAAAGUGGAGGGGCCCG [G45C G47C] | 0.427
AACACUGCCAAUGCCGGUCCCAAGCCCGGAUAAAAGUGGAGGGGCCUG [G45C G47U] | 0.177
AACACUGCCAAUGCCGGUCCCAAGCCCGGAUAAAAGUGGAGGUGCCGG [G43U G45C] | 0.271
AACACUGCCAAUGCCGGUCCCAAGCCCGGAUAAAAGUGGAAGGGACGG [G41A G45A] | 0.588
AACACUGCCAAUGCCGGUCCCAAGCCCGGAUAAAAGUGGAAGGGUCGG [G41A G45U] | 0.196
AACACUGCCAAUGCCGGUCCCAAGCCCGGAUAAAAGUGGAAGGGCCGG [G41A G45C] | 0.151
AACACUGCCAAUGCCGGUCCCAAGCCCGGAUAAAAGUGGGGGGGUCGG [A40G G45U] | 0.147
AACACUGCCAAUGCCGGUCCCAAGCCCGGAUAAAAGUGGGGGGGCCGG [A40G G45C] | 0.148
AACACUGCCAAUGCCGGUCCCAAGCCCGGAUAAAAGUGGAGGGGACAG [G45A G47A] | 0.71
AACACUGCCAAUGCCGGUCCCAAGCCCGGAUAAAAGUGGAGGGAGCGC [G44A G48C] | 1.11
AACACUGCCAAUGCCGGUCCCAAGCCCGGAUAAAAGUGGAGGGAGCGU [G44A G48U] | 1.08
AACACUGCCAAUGCCGGUCCCAAGCCCGGAUAAAAGUGGAGGGAGCAG [G44A G47A] | 0.867
AACACUGCCAAUGCCGGUCCCAAGCCCGGAUAAAAGUGGAUGGGGAGG [G41U C46A] | 0.512
AACACUGCCAAUGCCGGUCCCAAGCCCGGAUAAAAGUGGACGGGACGG [G41C G45A] | 0.334
AACACUGCCAAUGCCGGUCCCAAGCCCGGAUAAAAGUGGACGGGCCGG [G41C G45C] | 0.253
AACACUGCCAAUGCCGGUCCCAAGCCCGGAUAAAAGUGGAGGCUGCGG [G43C G44U] | 0.455
AACACUGCCAAUGCCGGUCCCAAGCCCGGAUAAAAGUGGAGUGGGAGG [G42U C46A] | 0.162
AACACUGCCAAUGCCGGUCCCAAGCCCGGAUAAAAGUGGAGUGAGCGG [G42U G44A] | 0.524
